The text below walks through data of patent publication JP2007300927A (dated 2007).

Positions count from the first letter of the chain named. Numbers in names are those of the source.

The chains are these.
B1: ヒト化GC33 H鎖ver.k / L鎖ver.a (antibody, human IgG1, V domains shown)
VH: QVQLVQSGAEVKKPGASVKVSCKASGYTFTDYEMHWVRQAPGQGLEWMGALDPKTGDTAYSQKFKGRVTLTADKSTSTAYMELSSLTSEDTAVYYCTRFYSYTYWGQGTLVTVSS
VL: DVVMTQSPLSLPVTPGEPASISCRSSQSLVHSNGNTYLHWYLQKPGQSPQLLIYKVSNRFSGVPDRFSGSGSGTDFTLKISRVEAEDVGVYYCSQNTHVPPTFGQGTKLEIK
notes: Human IgG1 / κ constant regions; also called GC33 VH ver.k
B2: GC33 ver.a / mouse (antibody, human IgG1, V domains shown)
VH: B1 VH with Q6E, L70I, K74E, T87R, T97A
VL: B1 VL with S7T, T14S, P15L, E17D, P18Q, Q50K, V88L, Y92F, Q105S
notes: Humanised H chain variable region ver.a combined with the mouse GC33 L chain variable region; human IgG1 / κ constant regions; also called H鎖 ver.a / L鎖 マウスGC33
B3: ヒト化GC33 H鎖ver.h / L鎖ver.a (antibody, human IgG1, V domains shown)
VH: B1 VH with Q6E
VL: B1 VL
notes: Human IgG1 / κ constant regions; also called GC33 VH ver.h
B4: ヒト化GC33 H鎖ver.i / L鎖ver.a (antibody, human IgG1, V domains shown)
VH: B1 VH with K74E, T87R
VL: B1 VL
notes: Human IgG1 / κ constant regions; also called GC33 VH ver.i
B5: ヒト化GC33 H鎖ver.c / L鎖ver.a (antibody, human IgG1, V domains shown)
VH: B1 VH with Q6E, K74E, T87R
VL: B1 VL
notes: Human IgG1 / κ constant regions; also called GC33 VH ver.c
B6: ヒト化GC33 H鎖ver.j / L鎖ver.a (antibody, human IgG1, V domains shown)
VH: B1 VH with T87R
VL: B1 VL
notes: Human IgG1 / κ constant regions; also called GC33 VH ver.j
B7: ヒト化GC33(ver.a / ver.a) (antibody, V domains shown)
VH: B1 VH with Q6E, L70I, K74E, T87R, T97A
VL: B1 VL
notes: Human IgG1 / human κ constant regions (HEFgγ1, HEFgκ); also called GC33 VH ver.a / GC33 VL ver.a
B8: ヒト化GC33 H鎖ver.f / L鎖ver.a (antibody, human IgG1, V domains shown)
VH: B1 VH with Q6E, T87R
VL: B1 VL
notes: Human IgG1 / κ constant regions; also called GC33 VH ver.f
B9: 改変抗体G34W (antibody, human IgG1, V domains shown)
VH: B1 VH
VL: B1 VL with G34W
notes: As G34A: H chain ver.k by 'the method above'; human IgG1/κ; COS7 supernatant
B10: 改変抗体G34F (antibody, human IgG1, V domains shown)
VH: B1 VH
VL: B1 VL with G34F
notes: as for B9
B11: 改変抗体G34A (antibody, human IgG1, V domains shown)
VH: B1 VH
VL: B1 VL with G34A
notes: Humanised GC33 L chain ver.a variant; human IgG1/κ; COS7 culture supernatant
B12: 改変抗体G34D (antibody, human IgG1, V domains shown)
VH: B1 VH
VL: B1 VL with G34D
notes: as for B9
B13: 改変抗体G34S (antibody, human IgG1, V domains shown)
VH: B1 VH
VL: B1 VL with G34S
notes: as for B9
B14: 改変抗体G34E (antibody, human IgG1, V domains shown)
VH: B1 VH
VL: B1 VL with G34E
notes: as for B9
B15: 改変抗体G34T (antibody, human IgG1, V domains shown)
VH: B1 VH
VL: B1 VL with G34T
notes: as for B9
B16: Asn33をAspに置換した改変抗体(N33D) (antibody, human IgG1, V domains shown)
VH: B1 VH
VL: B1 VL with N33D
notes: Humanised GC33 H chain ver.k (HEFgγ1, human IgG1) with L chain ver.a N33D (HEFgκ, human κ), expressed transiently in COS7; culture supernatant used
B17: 改変抗体G34L (antibody, human IgG1, V domains shown)
VH: B1 VH
VL: B1 VL with G34L
notes: as for B9
B18: 改変抗体G34H (antibody, human IgG1, V domains shown)
VH: B1 VH
VL: B1 VL with G34H
notes: as for B9
B19: 改変抗体G34Q (antibody, human IgG1, V domains shown)
VH: B1 VH
VL: B1 VL with G34Q
notes: as for B9
B20: 改変抗体G34R (antibody, human IgG1, V domains shown)
VH: B1 VH
VL: B1 VL with G34R
notes: as for B9
B21: 改変抗体G34N (antibody, human IgG1, V domains shown)
VH: B1 VH
VL: B1 VL with G34N
notes: as for B9
B22: 改変抗体G34K (antibody, human IgG1, V domains shown)
VH: B1 VH
VL: B1 VL with G34K
notes: as for B9
B23: 改変抗体G34I (antibody, human IgG1, V domains shown)
VH: B1 VH
VL: B1 VL with G34I
notes: as for B9
B24: 改変抗体G34Y (antibody, human IgG1, V domains shown)
VH: B1 VH
VL: B1 VL with G34Y
notes: as for B9
B25: L9G11 (antibody, V domains shown)
VH: QVQLQQPGAELVKPGASVKLSCKASGYTFTSYWMHWVKQRPGQGLEWIGTIDPSDSETHYNLQFKDTATLTVDKSSSTAYMQLSSLTSEDSAVYYCIRGAFYSSYSYWAWFAYWGQGTLVTVSA
VL: DIVLTQSPTSLAVSLGQSVTISCRASESVEYYGTSLMQWYQQKPGQPPKLLIYGASNVESGVPARFSGSGSGTDFSLNIHPVEEDDIAMYFCQQSRKVPYTFGSGTKLEIK
notes: Mouse hybridoma antibody
B26: M6B1 (antibody, V domains shown)
VH: EVQLVESGGDLVKPGGSLKLSCAASGFTFSSYAMSWVRQTPEKRLEWVAAINSNGGTTYYPDTMKDRFTISRDNAKNTLYLQMSSLRSEDSALYYCTRHNGGYENYGWFAYWGQGTLVTVSA
VL: DIQMTQSPSSLSASLGGKVTITCKASQDINKNIIWYQHKPGKGPRLLIWYTSTLQPGIPSRFSGSGSGRDYSFSISNLEPEDIATYYCLQYDNLPRTFGGGTKLEIK
notes: Mouse hybridoma antibody
B27: M13B3 (antibody, V domains shown)
VH: EVHLVESGGGLVKPGGSLKLSCAASGFTFSNYAMSWVRQTPEKRLEWVAAINNNGDDTYYLDTVKDRFTISRDNAKNTLYLQMSSLRSEDTALYYCVRQGGAYWGQGTLVTVSA
VL: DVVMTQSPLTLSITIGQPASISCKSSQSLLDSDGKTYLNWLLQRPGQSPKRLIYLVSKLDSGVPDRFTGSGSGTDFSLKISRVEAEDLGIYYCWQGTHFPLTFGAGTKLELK
notes: Mouse hybridoma antibody
B28: GC199 (antibody, V domains shown)
VH: QIQLEQSGPELKKPGETVKISCKASGYIFRDYSMHWVKQAPGKGLKWMGWINTETGEPTYADDFKGRFAFSLETSASTAYLQINNLKNEDTATYFCTSLYWGQGTLVTVSA
VL: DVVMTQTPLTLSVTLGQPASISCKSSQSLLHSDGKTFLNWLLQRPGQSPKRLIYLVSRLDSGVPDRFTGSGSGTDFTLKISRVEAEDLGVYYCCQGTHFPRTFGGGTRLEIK
notes: Mouse hybridoma antibody from GC-3 immunisation; also called GC199抗体
B29: GC179 (antibody, V domains shown)
VH: EVQLVETGGGLVQPEGSLKLSCAASGFSFNINAMNWVRQAPGKGLEWVARIRSESNNYATYYGDSVKDRFTISRDDSQNMLYLQMNNLKTEDTAIYYCVREVTTSFAYWGQGTLVTVSA
VL: DIVMTQSAPSVPVTPGESVSISCKSSKSLLHSNGNTYLNWFLQRPGQSPQLLIYWMSNLASGVPDRFSGSGSGTAFTLRISRVEAEDVGVYYCMQHIEYPFTFGTGTKLEIK
notes: Mouse hybridoma antibody from GC-3 immunisation
B30: GC33 (antibody, V domains shown)
VH: QVQLQQSGAELVRPGASVKLSCKASGYTFTDYEMHWVKQTPVHGLKWIGALDPKTGDTAYSQKFKGKATLTADKSSSTAYMELRSLTSEDSAVYYCTRFYSYTYWGQGTLVTVSA
VL: B1 VL with S7T, T14S, P15L, E17D, P18Q, Q50K, V88L, Y92F, Q105S
notes: also called GC33抗体

The first experiment concerns the target T1, 可溶型GPC3コアタンパク質 (human, UniProt P51654 25-563).
T1 construct: also called 可溶型GPC3コア蛋白質; soluble GPC3 core protein; not shown: C-terminal His tag
As to the kind of experiment: ELISA on GPC3 (Fig. 15). In general terms: In an ELISA, binding on a coated surface is turned into a signal by an enzyme label.
Target sequence in this assay (P51654 25-563 S495A/S509A): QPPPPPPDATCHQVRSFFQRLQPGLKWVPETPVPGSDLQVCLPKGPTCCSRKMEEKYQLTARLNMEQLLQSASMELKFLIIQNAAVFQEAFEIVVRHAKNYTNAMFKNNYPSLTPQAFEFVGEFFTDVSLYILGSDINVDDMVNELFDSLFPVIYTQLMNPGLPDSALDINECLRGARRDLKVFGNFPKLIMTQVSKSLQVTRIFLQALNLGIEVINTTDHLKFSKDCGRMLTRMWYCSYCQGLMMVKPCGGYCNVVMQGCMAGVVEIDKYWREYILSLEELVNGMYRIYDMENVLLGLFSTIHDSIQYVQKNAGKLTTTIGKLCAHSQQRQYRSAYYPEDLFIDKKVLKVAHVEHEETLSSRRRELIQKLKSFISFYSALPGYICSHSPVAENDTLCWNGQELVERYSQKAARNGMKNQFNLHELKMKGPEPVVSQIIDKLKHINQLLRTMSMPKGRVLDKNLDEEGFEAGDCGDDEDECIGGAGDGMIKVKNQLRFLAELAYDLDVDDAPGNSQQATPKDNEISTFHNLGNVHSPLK
With B1, the binding result is reported as “binds”.

As for B2, the binding result was “binds”.

In the case of B3, the binding result is recorded as “binds”.

Regarding B4, the binding result is reported as “binds”.

On to B5, for which the binding result is given as “binds”.

As to B6, the binding result is given as “binds”.

Regarding B7, the binding result is recorded as “binds”.

As for B8, the binding result was “binds”.

The next experiment deals with T1, 可溶型GPC3コアタンパク質. As to the kind of experiment: ELISA on immobilised soluble GPC3 core protein, COS7 supernatant.
Target sequence in this assay (P51654 25-563 S495A/S509A): as above
As for B9, the binding result is reported as “binds”.

For the molecule B10, the binding result is on record as “binds”.

In the case of B11, the binding result is recorded as “binds”.

Regarding B12, the binding result was “binds”.

For B13, the binding result is listed as “binds”.

Turning to B14, the binding result was “binds”.

On to B15, for which the binding result was “binds”.

In the case of B16, the binding result is on record as “no binding”.

As for B17, the binding result is given as “binds”.

As for B18, the binding result was “binds”.

On to B19, for which the binding result is recorded as “binds”.

As for B20, the binding result is “binds”.

On to B21, for which the binding result is recorded as “binds”.

Regarding B22, the binding result is “binds”.

For B23, the binding result was “binds”.

With B24, the binding result is “binds”.

The next experiment has as its target T1, 可溶型GPC3コアタンパク質. The experiment can be described thus: ELISA, purified antibody from 10 μg/mL in 3-fold steps on immobilised soluble GPC3 core protein.
Target sequence in this assay (P51654 25-563 S495A/S509A): as above
Take B25: the binding result is “binds”.

For B26, the binding result is “binds”.

Take B27: the binding result was “binds”.

The next experiment addresses T1, 可溶型GPC3コアタンパク質. As to the kind of experiment: ELISA screening on immobilised soluble GPC3 core protein.
Turning to B28, the binding result was “binds”.

For the molecule B29, the binding result is reported as “binds”.

For B30, the binding result is on record as “binds”.

A further experiment addresses T2, GC-2 (human, UniProt P51654 510-563).
T2 construct: also called GST融合タンパク質GC-2(Gly510からLys563); not shown: GST (glutathione S-transferase) of vector pGEX-4T-3 (Amersham), N-terminal to the GPC3 piece
T2 sequence: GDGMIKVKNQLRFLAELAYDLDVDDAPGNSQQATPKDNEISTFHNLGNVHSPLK
As to the kind of experiment: Western blot of GST fusion proteins.
In the case of B28, the binding result is “binds”.

Regarding B29, the binding result is listed as “binds”.

With B30, the binding result is “binds”.

Another experiment addresses T3, GC-3 (human, UniProt P51654 524-563).
T3 construct: also called GST融合タンパク質GC-3(Ala524からLys563); not shown: GST (glutathione S-transferase) of vector pGEX-4T-3 (Amersham), N-terminal to the GPC3 piece
T3 chain: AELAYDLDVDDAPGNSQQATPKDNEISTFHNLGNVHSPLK
The experiment can be described thus: Western blot of GST fusion proteins.
B28: the binding result is listed as “binds”.

Take B29: the binding result is on record as “binds”.

Consider B30, for which the binding result was “binds”.

Another experiment concerns the target T4, GC-1 (human, UniProt P51654 495-563).
T4 construct: Made in E. coli DH5α, purified on glutathione resin; also called GST融合タンパク質GC-1(Ser495からLys563); not shown: GST (glutathione S-transferase) of vector pGEX-4T-3 (Amersham), N-terminal to the GPC3 piece
T4 sequence: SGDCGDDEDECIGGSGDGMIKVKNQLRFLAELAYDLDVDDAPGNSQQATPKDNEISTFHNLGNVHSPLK
The experiment can be described thus: Western blot of GST fusion proteins.
Regarding B28, the binding result was “binds”.

For the molecule B29, the binding result is recorded as “binds”.

In the case of B30, the binding result is on record as “binds”.
